Measured values as given in patent US20250002610A1 (Genmab, published 2025).
Where a chain is given by its changes, count along the chain named.

T1: human DR4 (Death Receptor 4), cell surface expressed on human tumor cell lines (human, UniProt O00220 24-468)
T1 construct: also called TNFRSF10A; TRAIL-R1
T1 sequence: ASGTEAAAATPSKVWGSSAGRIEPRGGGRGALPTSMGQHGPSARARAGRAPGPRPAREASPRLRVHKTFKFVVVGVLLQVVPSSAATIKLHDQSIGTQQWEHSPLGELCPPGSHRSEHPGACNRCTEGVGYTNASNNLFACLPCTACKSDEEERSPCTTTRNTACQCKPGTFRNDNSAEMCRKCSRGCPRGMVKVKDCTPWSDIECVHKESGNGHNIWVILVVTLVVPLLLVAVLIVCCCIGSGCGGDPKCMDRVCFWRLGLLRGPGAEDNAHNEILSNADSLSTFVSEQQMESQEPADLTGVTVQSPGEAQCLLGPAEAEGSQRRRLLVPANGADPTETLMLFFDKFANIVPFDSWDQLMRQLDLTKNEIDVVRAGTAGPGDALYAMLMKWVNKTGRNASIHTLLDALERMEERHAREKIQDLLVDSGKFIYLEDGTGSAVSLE

T2: human FAPα (Fibroblast activation protein alpha), cell surface expressed (human, UniProt Q12884 1-760)
T2 construct: Endogenous on human lung fibroblasts and CAFs
T2 sequence: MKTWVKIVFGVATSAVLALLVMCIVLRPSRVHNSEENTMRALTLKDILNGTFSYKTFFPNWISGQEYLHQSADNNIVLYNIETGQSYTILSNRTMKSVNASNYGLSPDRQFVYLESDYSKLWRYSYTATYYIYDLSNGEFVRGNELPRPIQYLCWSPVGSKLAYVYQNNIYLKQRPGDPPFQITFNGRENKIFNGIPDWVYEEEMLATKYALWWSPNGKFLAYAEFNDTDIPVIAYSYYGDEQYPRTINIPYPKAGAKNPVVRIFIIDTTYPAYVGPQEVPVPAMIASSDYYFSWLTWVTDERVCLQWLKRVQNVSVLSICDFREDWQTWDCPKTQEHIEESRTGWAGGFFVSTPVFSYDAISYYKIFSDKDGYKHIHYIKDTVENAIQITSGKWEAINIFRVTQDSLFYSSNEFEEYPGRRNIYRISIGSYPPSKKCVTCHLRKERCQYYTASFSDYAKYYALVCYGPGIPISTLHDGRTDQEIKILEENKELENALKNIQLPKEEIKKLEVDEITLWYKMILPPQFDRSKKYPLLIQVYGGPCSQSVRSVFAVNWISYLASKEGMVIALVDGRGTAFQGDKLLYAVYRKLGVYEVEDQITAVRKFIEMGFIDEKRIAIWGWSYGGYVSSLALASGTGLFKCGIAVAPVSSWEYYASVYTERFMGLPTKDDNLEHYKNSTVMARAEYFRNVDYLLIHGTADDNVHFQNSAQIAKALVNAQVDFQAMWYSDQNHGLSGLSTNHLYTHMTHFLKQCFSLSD

B1: IgG1-DR4-FERR (antibody, V domains shown)
VH: QVQLQESGPGLVKPSGTLSLTCAVSGGSISSYSWWSWIRQPPGKGLEWIGELYHSGSTNYNPSLKSRVTISVDKSKNQFSLKLRSVTAADTAVYYCVRGVATIDYWGQGTLVTVSS
VL: QSALTQPPSASGSPGQSVTISCTGTSSDVGGYNFVSWYQQDPGKAPKLLIYEVTKRPSGVPDRFSGSKSGNTASLTVSGLQAEDEADYYCSSYAGSNNVMFGGGTKLTVLG
notes: Bivalent monoclonal IgG1 lambda
B2: BisG1-FAPα-FERL/DR4-FERR (bispecific antibody, human IgG1, kappa, lambda)
heavy 1: EVQLLESGGGLVQPGGSPRLSCEASGFTFSSYALSWVRQAPGKGLEWVSAISGSGGGRYYADSVKGRFTISRDNSKNTLFLQMNSLRAEDTAVYYCAKEGYSSSGTYWDHWGQGTLVTVSSASTKGPSVFPLAPSSKSTSGGTAALGCLVKDYFPEPVTVSWNSGALTSGVHTFPAVLQSSGLYSLSSVVTVPSSSLGTQTYICNVNHKPSNTKVDKRVEPKSCDKTHTCPPCPAPEFERGPSVFLFPPKPKDTLMISRTPEVTCVVVDVSHEDPEVKFNWYVDGVEVHNAKTKPREEQYNSTYRVVSVLTVLHQDWLNGKEYKCKVSNKALPAPIEKTISKAKGQPREPQVYTLPPSREEMTKNQVSLTCLVKGFYPSDIAVEWESNGQPENNYKTTPPVLDSDGSFLLYSKLTVDKSRWQQGNVFSCSVMHEALHNHYTQKSLSLSPG
light 1: AIQMTQSPSSVSASVGDRVTITCRASQGVSSWLAWYQQKPGRAPKLLIYVASTLQSGVPSRFSGSGSGTDFTLTINSLQPEDFATYYCQQANSFPPTFGQGTRLEMKRTVAAPSVFIFPPSDEQLKSGTASVVCLLNNFYPREAKVQWKVDNALQSGNSQESVTEQDSKDSTYSLSSTLTLSKADYEKHKVYACEVTHQGLSSPVTKSFNRGEC
heavy 2: QVQLQESGPGLVKPSGTLSLTCAVSGGSISSYSWWSWIRQPPGKGLEWIGELYHSGSTNYNPSLKSRVTISVDKSKNQFSLKLRSVTAADTAVYYCVRGVATIDYWGQGTLVTVSSASTKGPSVFPLAPSSKSTSGGTAALGCLVKDYFPEPVTVSWNSGALTSGVHTFPAVLQSSGLYSLSSVVTVPSSSLGTQTYICNVNHKPSNTKVDKRVEPKSCDKTHTCPPCPAPEFERGPSVFLFPPKPKDTLMISRTPEVTCVVVDVSHEDPEVKFNWYVDGVEVHNAKTKPREEQYNSTYRVVSVLTVLHQDWLNGKEYKCKVSNKALPAPIEKTISKAKGQPREPQVYTLPPSREEMTKNQVSLTCLVKGFYPSDIAVEWESNGQPENNYKTTPPVLDSDGSFFLYSRLTVDKSRWQQGNVFSCSVMHEALHNHYTQKSLSLSPG
light 2: QSALTQPPSASGSPGQSVTISCTGTSSDVGGYNFVSWYQQDPGKAPKLLIYEVTKRPSGVPDRFSGSKSGNTASLTVSGLQAEDEADYYCSSYAGSNNVMFGGGTKLTVLGQPKAAPSVTLFPPSSEELQANKATLVCLISDFYPGAVTVAWKADSSPVKAGVETTTPSKQSNNKYAASSYLSLTPEQWKSHRSYSCQVTHEGSTVEKTVAPTECS
notes: Human IgG1 bispecific made by controlled Fab-arm exchange of IgG1-FAPα-FERL and IgG1-DR4-FERR; monovalent for FAPα and for DR4; also called GEN1057
B3: BisG1-b12-FERL/DR4-FERR (bispecific antibody, human IgG1, kappa, lambda)
heavy 1: QVQLVQSGAEVKKPGASVKVSCQASGYRFSNFVIHWVRQAPGQRFEWMGWINPYNGNKEFSAKFQDRVTFTADTSANTAYMELRSLRSADTAVYYCARVGPYSWDDSPQDNYYMDVWGKGTTVIVSSASTKGPSVFPLAPSSKSTSGGTAALGCLVKDYFPEPVTVSWNSGALTSGVHTFPAVLQSSGLYSLSSVVTVPSSSLGTQTYICNVNHKPSNTKVDKRVEPKSCDKTHTCPPCPAPEFERGPSVFLFPPKPKDTLMISRTPEVTCVVVDVSHEDPEVKFNWYVDGVEVHNAKTKPREEQYNSTYRVVSVLTVLHQDWLNGKEYKCKVSNKALPAPIEKTISKAKGQPREPQVYTLPPSREEMTKNQVSLTCLVKGFYPSDIAVEWESNGQPENNYKTTPPVLDSDGSFLLYSKLTVDKSRWQQGNVFSCSVMHEALHNHYTQKSLSLSPG
light 1: EIVLTQSPGTLSLSPGERATFSCRSSHSIRSRRVAWYQHKPGQAPRLVIHGVSNRASGISDRFSGSGSGTDFTLTITRVEPEDFALYYCQVYGASSYTFGQGTKLERKRTVAAPSVFIFPPSDEQLKSGTASVVCLLNNFYPREAKVQWKVDNALQSGNSQESVTEQDSKDSTYSLSSTLTLSKADYEKHKVYACEVTHQGLSSPVTKSFNRGEC
heavy 2: B2 heavy 2
light 2: B2 light 2
notes: Fab-arm exchange of IgG1-b12-FERL and IgG1-DR4-FERR; also called bsIgG1-ctrl-FERLxDR4-FERR
B4: IgG1-FAPα-FERL (antibody)
heavy: B2 heavy 1
light: B2 light 1
notes: Bivalent monoclonal IgG1 kappa
B5: BisG1-FAPα-FERL/b12-FERR (bispecific antibody, human IgG1, kappa)
heavy 1: B2 heavy 1
light 1: B2 light 1
heavy 2: B3 heavy 1 with L415F, K419R
light 2: B3 light 1

molecular target: T1, human DR4 (Death Receptor 4), cell …; assay: flow cytometry, PANC-1 cells, n = 2

Question: Which EC50 does the source give for B1 here?
Answer: Its EC50 is 0.4 µg/mL.

Question: B2 was tested. Which EC50 did it give?
Answer: The EC50 was 1.89 µg/mL.

Question: For B3, which EC50 is on record?
Answer: The EC50 was 2.12 µg/mL.

molecular target: T1, human DR4 (Death Receptor 4), cell …; assay: flow cytometry, HCT-116 cells, n = 3

Question: Which EC50 does the source give for B1 here?
Answer: The EC50 was 0.11 µg/mL.

Question: B2 was tested. Which EC50 did it give?
Answer: Its EC50 is 0.53 µg/mL.

Question: For B3, which EC50 is on record?
Answer: Its EC50 is 0.55 µg/mL.

molecular target: T2, human FAPα (Fibroblast activation …); assay: flow cytometry, human lung fibroblasts, n = 3
Description: Binding of bispecific or monoclonal antibodies carrying the anti-FAPα arm derived from IgG1-FAPα-FERL (BisG1-FAPα-FERL/DR4-FERR, BisG1-FAPα-FERL/b12-FERR, and IgG1-FAPα-FERL) to cell surface expressed human FAPα was analyzed by flow cytometry using human lung fibroblasts and CAFs, which endogenously express FAPα. BisG1-b12-FERL/b12-FERR was used as negative control.
Human lung fibroblasts and CAFs (50,000 cells/well) were seeded in 96-Well round bottom plates (Greiner Bio-one, Cat #650101). Antibody dilutions were prepared using fluorescence-activated cell sorting (FACS) buffer, consisting of phosphate buffer saline (PBS, Lonza, Cat #BE17-517Q)+1% Bovine Serum Albumin (BSA, Roche, Cat #10735086001)+0.02% Sodium Azide (Bio-World, Cat #41920044-3). Plates were centrifuged, supernatant was removed, cells were resuspended in 50 μL of human Fc Block (BD, Cat #564220, diluted 1:100 in FACS buffer) and 50 μL of viability stain TO-PRO-3 Iodide (Thermo Fisher, Cat #T3605, diluted 1: 25,000 in FACS buffer), and incubated for 15 min at 4° C. Plates were washed three times with FACS buffer. Plates were centrifuged, supernatant was removed, cells were resuspended in 50 μL of antibody dilutions (concentration range 90-0.0005 μg/mL, three-fold dilution steps using FACS buffer) of BisG1-FAPα-FERL/DR4-FERR, BisG1-FAPα-FERL/b12-FERR, BisG1-b12-FERL/b12-FERR (top six concentrations only for CAFs culture) or IgG1-FAPα-FERL (top four concentrations only for CAFs culture) and incubated for 30 min at 4° C. Cells were washed three times with FACS buffer and resuspended in 50 μL of Fluorescein isothiocyanate (FITC)-labeled polyclonal antibody goat anti-mouse IgG1 (Jackson Immuno Research, Cat #109-096-097, diluted 1:100 in FACS buffer). […] Antibody binding to viable cells (TO-PRO-3 negative) was analyzed by flow cytometry on a FACSCelesta™ (BD biosciences) and data were processed using FlowJo_v10.8.1 (FlowJo LLC). Geomean fluorescence intensity, gMFI, was determined and visualized using GraphPad Prism.

Question: B2 was tested. Which EC50 did it give?
Answer: The EC50 was 0.059 µg/mL.

Question: Which EC50 does the source give for B4 here?
Answer: Its EC50 is 0.022 µg/mL.

Question: For B5, which EC50 is on record?
Answer: The EC50 was 0.048 µg/mL.
